Test [1] has as its target SARS-CoV-2 RBD, His6-tagged, for biolayer interferometry (SARS-CoV-2, UniProt P0DTC2). As to the kind of experiment: BLI. The following applies: both partners purified.
Test [2] concerns the target Avi-tag biotinylated RBD of SARS-CoV-2 S protein (SARS-CoV-2, UniProt P0DTC2). Briefly: flow cytometry on cells. The settings on record: both partners purified. (In general: Flow cytometry measures light scatter and fluorescence of single cells or particles in a stream.)

B1: 47D1 IgG (antibody, V domains shown)
VH: QVQLVQSGAEVKKPGSSVRVSCKASGGTFSTYPISWVRQAPGQGLEWMGGIIPIFGTAKSAQKFQGRVTITADEFTSTAYMEMSSLRSEDTAMYYCAREGRRYGSGWYISTGYFDYWGQGTLVTVSS
VL: QLVLTQPASVSGSPGQSIIVSCTGTSSDVGGYKFVSWYQQHPGKAPRVMIYDVSNRPSGVSNRFSGSKSGNTASLTISGLQADDEADYYCSSYTNSSTVVFGGGTKVTVL
Take B1: the binding result in test [1] and in test [2] was “binds” throughout.

For the origin of these results see PMC8064889 (Cell Reports, 2021).
